Measured values published in patent US20240270846A1.
One block for each binder: values may come before it.

Target: recombinant human CD3 (human) (UniProt P07766)
Experiment: SPR (Biacore T200, 37 degrees C), antibody captured by anti-human Fc, antigen as analyte, 1:1 model

Sequence of recombinant human CD3 (human) (P07766 23-126): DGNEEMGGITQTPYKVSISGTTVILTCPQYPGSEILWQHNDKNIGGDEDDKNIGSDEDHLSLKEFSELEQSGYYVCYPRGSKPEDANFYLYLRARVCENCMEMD

Kd: 17.8 nM
koff: 0.00151 s⁻¹
kon: 85000 M⁻¹ s⁻¹
B1: GPC3/CtrlxCD3 trispecific antibody (protein, from a related filing, part only)
VH 1: QVQLVESGGGLVQPGRSLRLSCAASGFTFSNAWMHWVRQAPGKGLEWVAQIKDRANSYNTYYAESVKGRFTISRDDSKNSIYLQMNSLKTEDTAVYYCRYVHYTTYAGSSFSYGVDAWGQGTTVTVSS
VL 1: DIVMTQSPLSLPVTPGEPASISCRSSQPLVHSNRNTYLHWYQQKPGQAPRLLIYKVSNRFSGVPDRFSGSGSGTDFTLKISRVEAEDVGVYYCGQGTQVPYTFGQGTKLEIK
VH 2: QVQLVQSGAEVKKPGASVTVSCKASGYTFTDYEMHWIRQPPGEGLEWIGAIDGPTPDTAYSEKFKGRVTLTADKSTSTAYMELSSLTSEDTAVYYCTRFYSYTYWGQGTLVTVSS
VL 2: B1 VL 1
modifications: left off: another chain or arm of the molecule; a dimerising Fc or GST

Kd: 17.5 nM
koff: 0.00147 s⁻¹
kon: 83700 M⁻¹ s⁻¹
B2: Ctrl/CtrlxCD3 trispecific antibody (protein, part only; not given: Control arm variable domains, constant regions, part only)
VH: B1 VH 1
VL: B1 VL 1
